The sequences below were run on Escherichia coli TOP10 (assay: shrunken log2 fold change of peptide-encoding DNA abundance (4.5 h post-induction vs induction); higher = less antimicrobial activity (less host growth inhibition)). Details: time post-induction: 4.5 h; library: site-saturation at positions 5, 18, 19, 20.
In the case of RRIRMRPPRLPRPRPRPFDWPRP, the “shrunken log2 fold change” value is reported as 0.597.
For RRIRVRPPRLPRPRPRPDFYPRP, the “shrunken log2 fold change” value was -0.25.
In the case of RRIRRRPPRLPRPRPRPSEEPRP, the “shrunken log2 fold change” value is reported as 0.125.
In the case of RRIRNRPPRLPRPRPRPFYTPRP, the “shrunken log2 fold change” value is reported as -1.29.
In the case of RRIRFRPPRLPRPRPRPQQIPRP, the “shrunken log2 fold change” value is reported as -0.54.
RRIRERPPRLPRPRPRPDKPPRP was tested, and the “shrunken log2 fold change” value was -0.051.
In the case of RRIRGRPPRLPRPRPRPAAGPRP, the “shrunken log2 fold change” value is reported as 1.18.
RRIRLRPPRLPRPRPRPSGNPRP was tested, and the “shrunken log2 fold change” value was -0.111.
RRIRVRPPRLPRPRPRPVNKPRP was tested, and the “shrunken log2 fold change” value was -0.186.
With RRIRGRPPRLPRPRPRPRIHPRP the “shrunken log2 fold change” value was 0.273.
With RRIRARPPRLPRPRPRPMMNPRP the “shrunken log2 fold change” value was 0.198.
RRIRWRPPRLPRPRPRPGHNPRP was tested, and the “shrunken log2 fold change” value was 0.31.
With RRIRIRPPRLPRPRPRPQIWPRP the “shrunken log2 fold change” value was -0.174.
With RRIRLRPPRLPRPRPRPPAKPRP the “shrunken log2 fold change” value was 0.529.
With RRIRQRPPRLPRPRPRPPQMPRP the “shrunken log2 fold change” value was -0.089.
RRIRYRPPRLPRPRPRPWMGPRP was tested, and the “shrunken log2 fold change” value was -0.294.
With RRIRYRPPRLPRPRPRPFLTPRP the “shrunken log2 fold change” value was -0.871.
For RRIRYRPPRLPRPRPRPETNPRP, the “shrunken log2 fold change” value was 0.0266.
With RRIRIRPPRLPRPRPRPLYLPRP the “shrunken log2 fold change” value was -1.08.
RRIRNRPPRLPRPRPRPCSIPRP was tested, and the “shrunken log2 fold change” value was -0.000921.
With RRIRQRPPRLPRPRPRPELTPRP the “shrunken log2 fold change” value was 0.232.
RRIRVRPPRLPRPRPRPFWPPRP was tested, and the “shrunken log2 fold change” value was 0.162.
RRIRVRPPRLPRPRPRPWFWPRP was tested, and the “shrunken log2 fold change” value was 0.121.
RRIRERPPRLPRPRPRPKYIPRP was tested, and the “shrunken log2 fold change” value was -0.0434.
With RRIRERPPRLPRPRPRPETQPRP the “shrunken log2 fold change” value was 0.0866.
In the case of RRIRKRPPRLPRPRPRPHTFPRP, the “shrunken log2 fold change” value is reported as -0.309.
In the case of RRIRSRPPRLPRPRPRPLYCPRP, the “shrunken log2 fold change” value is reported as -0.523.
With RRIRRRPPRLPRPRPRPPCAPRP the “shrunken log2 fold change” value was 0.667.
In the case of RRIRERPPRLPRPRPRPWHSPRP, the “shrunken log2 fold change” value is reported as -0.252.
In the case of RRIRSRPPRLPRPRPRPPTAPRP, the “shrunken log2 fold change” value is reported as 0.447.
With RRIRMRPPRLPRPRPRPLMCPRP the “shrunken log2 fold change” value was -0.249.
RRIRFRPPRLPRPRPRPALNPRP was tested, and the “shrunken log2 fold change” value was 0.0855.
RRIRKRPPRLPRPRPRPGVNPRP was tested, and the “shrunken log2 fold change” value was 0.213.
For RRIRYRPPRLPRPRPRPLQHPRP, the “shrunken log2 fold change” value was -0.688.
For RRIRNRPPRLPRPRPRPIQAPRP, the “shrunken log2 fold change” value was -0.0922.
RRIRHRPPRLPRPRPRPDAAPRP was tested, and the “shrunken log2 fold change” value was 0.453.
RRIRSRPPRLPRPRPRPTMPPRP was tested, and the “shrunken log2 fold change” value was 0.0349.
For RRIRHRPPRLPRPRPRPQCCPRP, the “shrunken log2 fold change” value was -0.00176.
With RRIRARPPRLPRPRPRPLGCPRP the “shrunken log2 fold change” value was 0.904.
For RRIRIRPPRLPRPRPRPIGQPRP, the “shrunken log2 fold change” value was -0.0062.
In the case of RRIRARPPRLPRPRPRPLETPRP, the “shrunken log2 fold change” value is reported as 0.9.
For RRIRWRPPRLPRPRPRPQIFPRP, the “shrunken log2 fold change” value was -0.053.
With RRIRLRPPRLPRPRPRPRTVPRP the “shrunken log2 fold change” value was 1.24.
For RRIRCRPPRLPRPRPRPCDPPRP, the “shrunken log2 fold change” value was -0.0532.
RRIRCRPPRLPRPRPRPHTNPRP was tested, and the “shrunken log2 fold change” value was -0.564.
In the case of RRIRWRPPRLPRPRPRPAVPPRP, the “shrunken log2 fold change” value is reported as 0.506.
With RRIRSRPPRLPRPRPRPATRPRP the “shrunken log2 fold change” value was 0.415.
With RRIRPRPPRLPRPRPRPSMMPRP the “shrunken log2 fold change” value was -0.412.
In the case of RRIRWRPPRLPRPRPRPFYTPRP, the “shrunken log2 fold change” value is reported as -0.575.
With RRIRERPPRLPRPRPRPKWRPRP the “shrunken log2 fold change” value was -0.102.
With RRIRHRPPRLPRPRPRPGCIPRP the “shrunken log2 fold change” value was -1.21.
RRIRLRPPRLPRPRPRPWLEPRP was tested, and the “shrunken log2 fold change” value was -0.212.
With RRIRFRPPRLPRPRPRPSVYPRP the “shrunken log2 fold change” value was -0.158.
With RRIRIRPPRLPRPRPRPKQNPRP the “shrunken log2 fold change” value was -0.197.
RRIRGRPPRLPRPRPRPIDQPRP was tested, and the “shrunken log2 fold change” value was 0.436.
For RRIRHRPPRLPRPRPRPATAPRP, the “shrunken log2 fold change” value was -0.0944.
With RRIRSRPPRLPRPRPRPFLCPRP the “shrunken log2 fold change” value was -0.634.
For RRIRNRPPRLPRPRPRPAEGPRP, the “shrunken log2 fold change” value was 0.0922.
For RRIRCRPPRLPRPRPRPFLDPRP, the “shrunken log2 fold change” value was -0.0521.
In the case of RRIRWRPPRLPRPRPRPPFCPRP, the “shrunken log2 fold change” value is reported as 0.24.
For RRIRTRPPRLPRPRPRPAPVPRP, the “shrunken log2 fold change” value was 0.0626.
RRIRMRPPRLPRPRPRPYRFPRP was tested, and the “shrunken log2 fold change” value was -0.118.
With RRIRYRPPRLPRPRPRPNTLPRP the “shrunken log2 fold change” value was -0.704.
In the case of RRIRQRPPRLPRPRPRPFYGPRP, the “shrunken log2 fold change” value is reported as -0.00903.
With RRIRMRPPRLPRPRPRPCLDPRP the “shrunken log2 fold change” value was -0.273.
For RRIRFRPPRLPRPRPRPKRVPRP, the “shrunken log2 fold change” value was 0.598.
In the case of RRIRWRPPRLPRPRPRPDYLPRP, the “shrunken log2 fold change” value is reported as -0.0223.
In the case of RRIRMRPPRLPRPRPRPNLQPRP, the “shrunken log2 fold change” value is reported as -0.0416.
With RRIRNRPPRLPRPRPRPALRPRP the “shrunken log2 fold change” value was 0.0951.
With RRIRTRPPRLPRPRPRPFGGPRP the “shrunken log2 fold change” value was -0.0397.
RRIRGRPPRLPRPRPRPCRMPRP was tested, and the “shrunken log2 fold change” value was 0.0426.
With RRIRCRPPRLPRPRPRPLLKPRP the “shrunken log2 fold change” value was -0.185.
In the case of RRIRQRPPRLPRPRPRPKYMPRP, the “shrunken log2 fold change” value is reported as -0.386.
For RRIRHRPPRLPRPRPRPMGSPRP, the “shrunken log2 fold change” value was -0.0537.
With RRIRWRPPRLPRPRPRPFSEPRP the “shrunken log2 fold change” value was -0.186.
RRIRQRPPRLPRPRPRPLWNPRP was tested, and the “shrunken log2 fold change” value was -0.245.
With RRIRHRPPRLPRPRPRPGKKPRP the “shrunken log2 fold change” value was -0.0335.
In the case of RRIRYRPPRLPRPRPRPQYFPRP, the “shrunken log2 fold change” value is reported as -1.64.
In the case of RRIRGRPPRLPRPRPRPGHTPRP, the “shrunken log2 fold change” value is reported as 0.0237.
RRIRLRPPRLPRPRPRPACTPRP was tested, and the “shrunken log2 fold change” value was -0.128.
For RRIRSRPPRLPRPRPRPMNVPRP, the “shrunken log2 fold change” value was -0.0106.
With RRIRHRPPRLPRPRPRPVFPPRP the “shrunken log2 fold change” value was 0.171.
RRIRARPPRLPRPRPRPNKPPRP was tested, and the “shrunken log2 fold change” value was -0.0887.
For RRIRNRPPRLPRPRPRPRDQPRP, the “shrunken log2 fold change” value was -0.0345.
With RRIRYRPPRLPRPRPRPQQGPRP the “shrunken log2 fold change” value was -0.34.
In the case of RRIRERPPRLPRPRPRPGMGPRP, the “shrunken log2 fold change” value is reported as -0.0461.
In the case of RRIRNRPPRLPRPRPRPYDNPRP, the “shrunken log2 fold change” value is reported as -0.897.
With RRIRFRPPRLPRPRPRPNVAPRP the “shrunken log2 fold change” value was 0.365.
For RRIRARPPRLPRPRPRPNQYPRP, the “shrunken log2 fold change” value was -0.801.
RRIRTRPPRLPRPRPRPPFQPRP was tested, and the “shrunken log2 fold change” value was 0.0322.
For RRIRMRPPRLPRPRPRPGFYPRP, the “shrunken log2 fold change” value was 0.0157.
RRIRMRPPRLPRPRPRPNWWPRP was tested, and the “shrunken log2 fold change” value was -0.0136.
RRIRGRPPRLPRPRPRPANVPRP was tested, and the “shrunken log2 fold change” value was -0.126.
RRIRWRPPRLPRPRPRPGHPPRP was tested, and the “shrunken log2 fold change” value was 0.0932.
RRIRRRPPRLPRPRPRPGPSPRP was tested, and the “shrunken log2 fold change” value was 0.442.
RRIRVRPPRLPRPRPRPITRPRP was tested, and the “shrunken log2 fold change” value was -0.0188.
For RRIRFRPPRLPRPRPRPVIMPRP, the “shrunken log2 fold change” value was -0.297.
For RRIRIRPPRLPRPRPRPNESPRP, the “shrunken log2 fold change” value was -0.243.
For RRIRQRPPRLPRPRPRPCARPRP, the “shrunken log2 fold change” value was -0.0014.
With RRIRVRPPRLPRPRPRPGQIPRP the “shrunken log2 fold change” value was -0.0586.
With RRIRTRPPRLPRPRPRPNGIPRP the “shrunken log2 fold change” value was 0.0301.
RRIRTRPPRLPRPRPRPVPKPRP was tested, and the “shrunken log2 fold change” value was 0.0251.
With RRIRTRPPRLPRPRPRPVLGPRP the “shrunken log2 fold change” value was 0.304.
For RRIRWRPPRLPRPRPRPEPPPRP, the “shrunken log2 fold change” value was 0.977.
RRIRKRPPRLPRPRPRPFAMPRP was tested, and the “shrunken log2 fold change” value was 0.359.
With RRIRCRPPRLPRPRPRPAGRPRP the “shrunken log2 fold change” value was 0.373.
RRIRTRPPRLPRPRPRPPSEPRP was tested, and the “shrunken log2 fold change” value was 0.42.
With RRIRMRPPRLPRPRPRPCYDPRP the “shrunken log2 fold change” value was 0.0509.
With RRIRHRPPRLPRPRPRPGEEPRP the “shrunken log2 fold change” value was 0.03.
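Also: peptides expressed intracellularly from a pBAD plasmid library in pooled LB shake-flask culture, induced with 0.3% L-arabinose, DNA abundance read by NGS, three biological replicates, DESeq2 with apeglm shrinkage.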
